FireProtDB (doi:10.1021/bi060038+)

B1: Phosphocarrier protein HPr, P08877 (parent)
chain: MAQKTFKVTADSGIHARPATVLVQTASKYDADVNLEYNGKTVNLKSIMGVMSLGIAKGAEITISASGADENDALNALEETMKSEGLGE

Variants of: B1
Settings: Bacillus subtilis (strain 168), pH 7, CD, sodium phosphate 10 mM, reversible: Yes, structure 2HPR, whole UniProt chain shown; for ddG of mutation (higher = less stable) / denaturant m value / unfolding free energy: 25 °C; for Tm / change of melting temperature, mutant - wild type (higher = more stable) / unfolding enthalpy (van 't Hoff): Thermal

Row | Variant | ddG of mutation (higher = less stable) (GdnHCl) [kcal/mol] | denaturant m value (GdnHCl) [kcal/mol/M] | unfolding free energy (GdnHCl) [kcal/mol] | ddG of mutation (higher = less stable) (Urea) [kcal/mol] | denaturant m value (Urea) [kcal/mol/M] | unfolding free energy (Urea) [kcal/mol] | Tm [°C] | change of melting temperature, mutant - wild type (higher = more stable) [°C] | unfolding enthalpy (van 't Hoff) [kcal/mol]
1 | MKQKTFKVTADSGIHARPATVLVQTASKYDADVNLEYNGKTVNLKSIMGVMSLGIAKGAEITISASGADEEDALNALEETMKSEGLGE [A2K N71E] | -1.1 | 3.37 | 4.5 | -1.1 | 0.95 | 6.1 | 79.6 | 6.6 | 85
2 | MRQKTFKVTADSGIHARPATVLVQTASKYDADVNLEYNGKTVNLKSIMGVMSLGIAKGAEITISASGADEEDALNALEETMKSEGLGE [A2R N71E] | -1.5 | 3.39 | 4.9 |  |  |  | 83.1 | 10.1 | 91
